From US20260139057A1 (University of California, published 2026) come the findings set out here.

The target in test [1] is recombinant human integrin αvβ8 ectodomain (human, UniProt P06756 31-992; P26012 43-681). Kind of test: cell-based or functional assay.
In test [2] the target is T1, integrin αvβ3 on HEK 293 cells stably expressing αvβ3 (Homo sapiens (Human), UniProt P06756 31-1048; P05106 27-788).
T1 construct: also called αvβ3 expressing 293 cells
Kind of test: flow cytometry on HEK 293 cells stably expressing αvβ3. The text has this:
(§1) A) Binding of anti-β3 (AP3) relative to F12 IgG4, H4C8 RGD1 IgG4,H4C8 RGD3 IgG4, H3C8 RGD3 with VL Fr4 V108/L109 (mouse) IgG4, H4C8 RGD3 IgG4, H3C8 RGD3 VL Fr4 K108/V109 (human) IgG4, H4C8 RGD1 VH Fr3 E72, H4C8 RGD3 VH Fr3 E72 IgG4. HEK 293 cells stably expressing αvβ3 were stained and the percentage of relative binding to the mean fluorescence intensity of AP3 is shown, B) Expi293 cells transiently expressing αvβ6 were stained and the percentage of relative binding to the mean fluorescence intensity of 3G9 is shown, C) HEK 293 cells stably expressing αvβ8 were stained and the percentage of relative binding to the mean fluorescence intensity of HuF12 is shown. All primary antibodies were used at 2.5 ug/ml. […] Binding or 3G9 is shown and percent binding of antibodies relative to 3G9 binding to αvβ6 is shown. Dotted line indicate binding observed with each positive control antibody,
(§2) RGD ligands bind promiscuously to a number of integrins. A highly desirable quality in RGD-mimetics is to retain specificity for some but not all integrins. One highly desirable property would be a dual inhibitor to both the αvβ8- and αvβ6-integrins, without cross-reactivity to other integrins. This property would facilitate specific targeting of integrin-mediated TGF-β activation without the liability of side-effects mediated by broadly blocking other integrins. We first measured binding to αvβ3 expressing 293 cells. Binding of anti-β3 (AP3) relative to F12 IgG4, H4C8 RGD1 IgG4,H4C8 RGD3 IgG4, H3C8 RGD3 with VL Fr4 V108/L109 (mouse) IgG4, H4C8 RGD3 IgG4, H3C8 RGD3 VI Fr4 K108/V109 (human) IgG4, H4C8 RGD1 Vh Fr3 E72, H4C8 RGD3 Vh Fr3 E72 IgG4. […] Expi293 cells transiently expressing αvβ6 were stained and the percentage of relative binding to the mean fluorescence intensity of anti-β6 (3G9) determined.

The target in test [3] is T2, integrin αvβ6 ectodomain (immobilized) (human, UniProt P06756 31-992; P18564 22-709).
T2 construct: extracellular domain; Bought from R&D Systems or made in ExpiCHO cells; also called immobilized human αvβ6
T2 sequence (P06756 31-992, chain 1 of 2): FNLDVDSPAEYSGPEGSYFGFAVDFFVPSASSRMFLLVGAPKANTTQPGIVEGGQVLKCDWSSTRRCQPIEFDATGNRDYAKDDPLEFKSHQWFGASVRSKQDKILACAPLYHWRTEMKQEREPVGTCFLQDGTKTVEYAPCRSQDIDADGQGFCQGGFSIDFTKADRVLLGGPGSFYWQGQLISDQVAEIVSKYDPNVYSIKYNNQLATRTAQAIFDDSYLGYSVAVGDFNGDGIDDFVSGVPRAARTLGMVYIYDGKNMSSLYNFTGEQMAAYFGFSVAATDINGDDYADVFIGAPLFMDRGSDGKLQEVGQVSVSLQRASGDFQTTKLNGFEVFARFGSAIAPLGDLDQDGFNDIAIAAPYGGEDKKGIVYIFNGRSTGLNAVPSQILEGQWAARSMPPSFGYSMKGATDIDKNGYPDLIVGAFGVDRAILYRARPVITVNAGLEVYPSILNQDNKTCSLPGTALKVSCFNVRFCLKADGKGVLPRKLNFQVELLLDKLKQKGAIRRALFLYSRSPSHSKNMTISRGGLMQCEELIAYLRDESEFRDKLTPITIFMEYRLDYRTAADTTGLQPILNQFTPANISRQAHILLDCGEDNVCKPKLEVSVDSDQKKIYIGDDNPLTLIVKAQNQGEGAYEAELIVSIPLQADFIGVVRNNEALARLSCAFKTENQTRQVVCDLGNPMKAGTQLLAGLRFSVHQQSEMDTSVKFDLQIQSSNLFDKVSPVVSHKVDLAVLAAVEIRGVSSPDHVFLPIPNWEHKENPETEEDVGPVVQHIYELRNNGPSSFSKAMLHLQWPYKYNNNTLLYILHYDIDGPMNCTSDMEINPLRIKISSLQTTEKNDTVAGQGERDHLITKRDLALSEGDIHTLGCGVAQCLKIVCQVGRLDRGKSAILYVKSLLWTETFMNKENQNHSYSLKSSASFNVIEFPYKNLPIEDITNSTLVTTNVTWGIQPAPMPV
T2 sequence (P18564 22-709, chain 2 of 2): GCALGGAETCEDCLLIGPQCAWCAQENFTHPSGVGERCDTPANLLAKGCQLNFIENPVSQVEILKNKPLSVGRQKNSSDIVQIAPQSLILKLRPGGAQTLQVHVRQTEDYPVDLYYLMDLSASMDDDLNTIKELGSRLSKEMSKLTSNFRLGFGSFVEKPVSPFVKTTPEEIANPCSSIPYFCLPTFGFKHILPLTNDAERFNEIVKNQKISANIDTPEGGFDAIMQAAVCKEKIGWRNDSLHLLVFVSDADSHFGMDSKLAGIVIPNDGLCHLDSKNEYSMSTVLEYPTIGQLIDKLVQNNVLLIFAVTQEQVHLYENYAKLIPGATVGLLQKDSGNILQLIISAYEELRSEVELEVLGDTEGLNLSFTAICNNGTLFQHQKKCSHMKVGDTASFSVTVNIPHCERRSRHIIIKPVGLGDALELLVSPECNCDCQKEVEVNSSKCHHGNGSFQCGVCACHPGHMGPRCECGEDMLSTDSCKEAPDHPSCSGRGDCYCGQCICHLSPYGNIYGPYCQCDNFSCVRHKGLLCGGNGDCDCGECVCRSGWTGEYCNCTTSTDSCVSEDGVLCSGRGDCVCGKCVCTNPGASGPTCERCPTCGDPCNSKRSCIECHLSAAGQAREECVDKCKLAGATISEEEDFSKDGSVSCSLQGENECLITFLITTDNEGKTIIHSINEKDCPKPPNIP
Briefly: binding to immobilized integrin ectodomains blocked with BSA.

The target of test [4] is T3, integrin αvβ1 ectodomain (immobilized) (Homo sapiens (Human), UniProt P06756 31-992; P05556 21-728).
T3 construct: R&D Systems; copies: 1 + 1
T3 sequence (P06756 31-992 limits assumed, chain 1 of 2): as the sequence (P06756 31-992, chain 1 of 2) above
T3 sequence (P05556 21-728 limits assumed, chain 2 of 2): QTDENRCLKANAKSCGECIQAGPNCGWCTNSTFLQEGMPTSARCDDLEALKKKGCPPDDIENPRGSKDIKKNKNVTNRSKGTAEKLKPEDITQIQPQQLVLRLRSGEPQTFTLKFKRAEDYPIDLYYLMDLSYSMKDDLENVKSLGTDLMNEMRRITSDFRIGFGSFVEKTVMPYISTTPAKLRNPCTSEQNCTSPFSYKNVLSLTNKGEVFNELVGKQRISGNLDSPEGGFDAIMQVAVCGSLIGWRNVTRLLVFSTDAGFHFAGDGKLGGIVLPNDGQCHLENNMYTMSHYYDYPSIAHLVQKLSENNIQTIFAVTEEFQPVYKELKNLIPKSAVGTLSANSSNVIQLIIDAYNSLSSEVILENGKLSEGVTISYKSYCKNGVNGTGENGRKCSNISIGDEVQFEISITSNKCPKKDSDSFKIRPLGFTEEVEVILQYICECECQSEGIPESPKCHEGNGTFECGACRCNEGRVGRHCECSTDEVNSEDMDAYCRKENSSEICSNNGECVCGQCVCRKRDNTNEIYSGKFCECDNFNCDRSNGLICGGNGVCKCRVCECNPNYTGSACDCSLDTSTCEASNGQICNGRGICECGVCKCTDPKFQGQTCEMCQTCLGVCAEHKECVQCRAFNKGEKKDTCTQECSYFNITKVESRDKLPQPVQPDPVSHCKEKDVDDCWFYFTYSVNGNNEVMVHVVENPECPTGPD
The description is as above.

The target in test [5] is T4, integrin αvβ5 ectodomain (immobilized) (Homo sapiens (Human), UniProt P06756 31-992; P18084 24-719).
T4 construct: R&D Systems; copies: 1 + 1
T4 sequence (P06756 31-992 limits assumed, chain 1 of 2): as the sequence (P06756 31-992, chain 1 of 2) above
T4 sequence (P18084 24-719 limits assumed, chain 2 of 2): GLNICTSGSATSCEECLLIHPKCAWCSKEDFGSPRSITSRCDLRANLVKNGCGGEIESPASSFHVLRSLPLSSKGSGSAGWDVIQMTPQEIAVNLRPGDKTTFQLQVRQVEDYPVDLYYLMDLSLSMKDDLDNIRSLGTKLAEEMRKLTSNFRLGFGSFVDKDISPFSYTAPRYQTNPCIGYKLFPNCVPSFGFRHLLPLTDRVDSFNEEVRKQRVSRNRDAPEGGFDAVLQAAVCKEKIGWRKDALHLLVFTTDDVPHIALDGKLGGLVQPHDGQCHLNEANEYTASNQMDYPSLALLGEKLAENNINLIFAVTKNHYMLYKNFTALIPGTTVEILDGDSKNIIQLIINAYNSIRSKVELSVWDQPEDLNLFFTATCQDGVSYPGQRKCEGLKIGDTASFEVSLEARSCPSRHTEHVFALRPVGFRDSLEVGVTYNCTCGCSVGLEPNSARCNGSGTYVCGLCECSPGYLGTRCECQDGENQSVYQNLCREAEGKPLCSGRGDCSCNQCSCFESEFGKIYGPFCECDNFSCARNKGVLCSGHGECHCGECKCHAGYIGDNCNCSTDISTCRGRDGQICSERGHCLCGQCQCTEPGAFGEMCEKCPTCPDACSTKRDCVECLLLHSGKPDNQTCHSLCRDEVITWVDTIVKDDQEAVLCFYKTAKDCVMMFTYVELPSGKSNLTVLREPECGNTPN
The description is as above.

The target in test [6] is T5, integrin αvβ6 on transfected cells (CHO cells; Expi293 cells transiently expressing αvβ6) (human, UniProt P06756 31-1048; P18564 22-788).
T5 construct: whole, on cells; Legend says 'CHO cells expressing human αvβ8 or αvβ6'; read as human; also called αvβ6 expressing CHO cells
T5 sequence (P06756 31-1048, chain 1 of 2): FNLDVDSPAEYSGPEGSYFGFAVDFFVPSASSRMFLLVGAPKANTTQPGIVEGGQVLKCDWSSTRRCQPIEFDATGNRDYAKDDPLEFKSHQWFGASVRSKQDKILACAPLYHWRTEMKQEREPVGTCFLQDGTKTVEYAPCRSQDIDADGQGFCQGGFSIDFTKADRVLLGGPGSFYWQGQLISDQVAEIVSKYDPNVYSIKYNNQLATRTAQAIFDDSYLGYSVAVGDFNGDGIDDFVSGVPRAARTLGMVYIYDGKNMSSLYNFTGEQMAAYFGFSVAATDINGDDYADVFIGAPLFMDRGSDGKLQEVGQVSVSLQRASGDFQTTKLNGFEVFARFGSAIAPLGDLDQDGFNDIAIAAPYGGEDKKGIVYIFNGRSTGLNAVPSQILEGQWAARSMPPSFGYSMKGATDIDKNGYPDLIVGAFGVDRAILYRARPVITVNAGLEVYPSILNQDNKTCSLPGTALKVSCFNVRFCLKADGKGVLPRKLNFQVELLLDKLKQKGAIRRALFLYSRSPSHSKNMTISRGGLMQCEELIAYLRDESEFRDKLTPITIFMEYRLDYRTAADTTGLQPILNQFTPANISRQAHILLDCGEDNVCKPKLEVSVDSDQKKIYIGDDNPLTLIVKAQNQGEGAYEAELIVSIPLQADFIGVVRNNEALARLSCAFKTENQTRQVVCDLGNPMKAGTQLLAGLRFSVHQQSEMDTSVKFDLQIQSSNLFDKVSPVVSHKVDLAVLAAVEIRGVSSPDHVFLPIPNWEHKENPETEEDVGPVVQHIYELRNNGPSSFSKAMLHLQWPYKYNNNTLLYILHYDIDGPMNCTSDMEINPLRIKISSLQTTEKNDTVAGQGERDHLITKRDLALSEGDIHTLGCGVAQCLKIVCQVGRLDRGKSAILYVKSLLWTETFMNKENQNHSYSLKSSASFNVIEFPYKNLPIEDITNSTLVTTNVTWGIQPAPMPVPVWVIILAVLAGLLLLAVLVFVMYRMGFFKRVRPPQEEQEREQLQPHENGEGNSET
T5 sequence (P18564 22-788, chain 2 of 2): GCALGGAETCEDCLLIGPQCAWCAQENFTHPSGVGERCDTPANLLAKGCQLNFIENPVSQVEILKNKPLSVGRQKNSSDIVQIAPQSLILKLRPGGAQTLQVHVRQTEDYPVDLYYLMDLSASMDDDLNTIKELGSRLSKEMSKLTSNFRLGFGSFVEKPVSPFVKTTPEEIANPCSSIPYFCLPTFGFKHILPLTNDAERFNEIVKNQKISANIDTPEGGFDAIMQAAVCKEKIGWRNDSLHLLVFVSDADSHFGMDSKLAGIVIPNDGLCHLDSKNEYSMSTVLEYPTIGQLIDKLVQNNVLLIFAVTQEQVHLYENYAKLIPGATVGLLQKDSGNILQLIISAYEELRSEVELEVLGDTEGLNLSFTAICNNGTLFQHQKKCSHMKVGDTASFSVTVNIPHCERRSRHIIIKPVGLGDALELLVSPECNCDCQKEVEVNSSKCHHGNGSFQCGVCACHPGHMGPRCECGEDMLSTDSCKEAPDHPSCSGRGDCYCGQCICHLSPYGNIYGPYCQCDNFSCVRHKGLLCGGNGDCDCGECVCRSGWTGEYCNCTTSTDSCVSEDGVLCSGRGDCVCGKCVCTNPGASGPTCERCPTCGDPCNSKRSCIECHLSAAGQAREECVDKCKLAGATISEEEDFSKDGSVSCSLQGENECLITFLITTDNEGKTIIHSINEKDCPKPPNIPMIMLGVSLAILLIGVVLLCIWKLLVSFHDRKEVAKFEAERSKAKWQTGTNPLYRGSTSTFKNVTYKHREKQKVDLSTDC
Kind of test: flow cytometry on CHO cells expressing αvβ6, antibodies as IgG4. (In general: Flow cytometry measures light scatter and fluorescence of single cells or particles in a stream.)

Test [7] deals with T3, integrin αvβ1 ectodomain (immobilized). Briefly: binding to immobilized ectodomains.
Test [8] concerns the target T4, integrin αvβ5 ectodomain (immobilized). Briefly: binding to immobilized ectodomains.
For test [9], the target named is T2, integrin αvβ6 ectodomain (immobilized). Briefly: binding to immobilized αvβ6 ectodomain.
For test [10], the target named is T6, human integrin αvβ8 on transfected cells (CHO cells stably transfected; HEK 293 cells stably expressing αvβ8) (human, UniProt P06756 31-1048; P26012 43-769).
T6 construct: whole, on cells; also called CHO αvβ8 cells; αvβ8 expressing CHO cells
Briefly: flow cytometry on HEK 293 cells stably expressing αvβ8.
From the text: as §1, with “FIG. 33 H4C8 RGD3 and H4C8 RGD1 show specificity for αvβ6 and αvβ8, VL Fr4 K108/V109 humanization improves or maintains binding, VH Fr4 Q72 improves binding over E72. A)” for “A)”, “antibody, […]” for “antibody,”

Test [11] has as its target T5, integrin αvβ6 on transfected cells (CHO …). Briefly: flow cytometry on Expi293 cells transiently expressing αvβ6, antibody at 2.5 µg/ml. How it is done: as §1, with “HEK” for “A) Binding of anti-β3 (AP3) relative to F12 IgG4, H4C8 RGD1 IgG4,H4C8 RGD3 IgG4, H3C8 RGD3 with VL Fr4 V108/L109 (mouse) IgG4, H4C8 RGD3 IgG4, H3C8 RGD3 VL Fr4 K108/V109 (human) IgG4, H4C8 RGD1 VH Fr3 E72, H4C8 RGD3 VH Fr3 E72 IgG4. HEK”
as §2, with “cells.” for “cells. Binding of anti-β3 (AP3) relative to F12 IgG4, H4C8 RGD1 IgG4,H4C8 RGD3 IgG4, H3C8 RGD3 with VL Fr4 V108/L109 (mouse) IgG4, H4C8 RGD3 IgG4, H3C8 RGD3 VI Fr4 K108/V109 (human) IgG4, H4C8 RGD1 Vh Fr3 E72, H4C8 RGD3 Vh Fr3 E72 IgG4.”, “determined. […]” for “determined.”

The target in test [12] is T6, human integrin αvβ8 on transfected …. Briefly: flow cytometry on HEK 293 cells stably expressing αvβ8, antibody at 2.5 µg/ml.
From the text: as §1, with “FIG. 33 H4C8 RGD3 and H4C8 RGD1 show specificity for αvβ6 and αvβ8, VL Fr4 K108/V109 humanization improves or maintains binding, VH Fr4 Q72 improves binding over E72. A)” for “A)”, “antibody, […]” for “antibody,”

Where a chain is given by its changes, count along the chain named.

B1: HuC6D4 F12 IgG4 (antibody)
heavy: QIQLVQSGAEVKKPGASVKISCKASGYTFTKYSMHWVRQAPGQGLEWVARINTETGEPTFADDFRGRFTVTLDTSTSTAYLEIRSLRSDDTAVYFCAIFYYGRDTWGQGTTLTVSSASTKGPSVFPLAPCSRSTSESTAALGCLVKDYFPEPVTVSWNSGALTSGVHTFPAVLQSSGLYSLSSVVTVPSSSLGTKTYTCNVDHKPSNTKVDKRVESKYGPPCPPCPAPEFLGGPSVFLFPPKPKDTLMISRTPEVTCVVVDVSQEDPEVQFNWYVDGVEVHNAKTKPREEQFNSTYRVVSVLTVLHQDWLNGKEYKCKVSNKGLPSSIEKTISKAKGQPREPQVYTLPPSQEEMTKNQVSLTCLVKGFYPSDIAVEWESNGQPENNYKTTPPVLDSDGSFFLYSKLTVDKSRWQEGNVFSCSVMHEALHNHYTQKSLSLSPGK
VL: EIVMTQSPATLSVSPGERVTMSCKSSQSLLHSRSRKNYLAWYQQKPGQAPRLLIYWASTRESGVPARFSGSGSGTEFTLTISSVQSEDFAVYYCKQSYNLLSFGQGTVLEIKR
notes: also called HuF12
As for B1, the “ED50 of the inhibition of αvβ8-mediated TGF-β activation (immobilized human αvβ8, TMLC GARP/L-TGF-β reporter cells)” value in test [1] was determined as 0.14 µg/mL. Besides, the binding result is given as “no binding (tested: 2.5 µg/ml)” in test [2]; “no binding” in test [3]; “no binding” in test [4]; “no binding” in [5]; “no binding (tested: 1 µg/mL)” in test [6].

B2: H4C8 RGD1 VH Fr3 E72 (antibody, IgG4, V domains shown)
VH: QVQLVQSGAEVKKPGASVKVSCKVSGYTLTRQSMHWVRQAPGKGLEWMGRINTETGEPTYAQKFQGRVTMTEDTSTDTAYMELSSLRSEDTAVYFCAIFYYGRDTWGQGTTVTVSS
VL: EIVMTQSPATLSVSPGERVTLSCKSSQSLLRRGDLATIHGNALAWYQQKPGQAPRLLIYWASTRETGVPARFSGSGSGTEFTLTISSLQSEDFAVYYCKQSYNLLSFGQGTKVEIKR
Take B2: the binding result is on record as “no binding” in [7]; “no binding” in test [8]; “binds” in test [9]; “no binding (tested: 2.5 µg/ml)” in [2]; “no binding (tested: 2.5 µg/ml)” in test [10]; “binds” in test [11].

B3: H4C8 RGD3 VH Fr3 E72 IgG4 (antibody, V domains shown)
VH: B2 VH
VL: B2 VL with R31G, A36G, T37R, I38L, H39K, G40K
notes: IgG4
Turning to B3, the binding result is recorded as “no binding” in [7]; “no binding” in test [8]; “binds” in test [9]; “no binding (tested: 2.5 µg/ml)” in [2]; “binds” in test [12]; “binds” in [11].
